Each block holds one binder with its values, some of them ahead of it. Bridge positions count the residues as written; N and C are the ends. Square brackets hold non-standard residues; d marks the D form. Primed or numbered codes have the meaning given here. S5 = C=CCCC[C@](C)(N)C(=O)O; Nle = CCCC[C@H](N)C(=O)O; FITC′ = fluorescein; βAla = NCCC(=O)O
What was measured:
[1] = biological target: T1, human NLRP3^PYD (residues 3-110, C-terminal 6 x histidine) (human, UniProt Q96P20 3-110); experiment: fluorescence polarization binding assay, FITC-labelled peptide
T1 construct: range 3-110; also called His6-NLRP3^PYD
T1 sequence (Q96P20 other isoform, or with tags, fused parts or gaps limits assumed): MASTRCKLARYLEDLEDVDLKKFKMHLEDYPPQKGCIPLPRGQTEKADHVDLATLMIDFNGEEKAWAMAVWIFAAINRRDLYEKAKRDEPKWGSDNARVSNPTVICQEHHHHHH

[2] = biological target: T2, human N-terminally GST tagged ASC^PYD (human, UniProt Q9ULZ3 1-106); experiment: as above
T2 construct: range 1-106; Expressed in E. coli from pGEX-4T1; also called GST-ASC^PYD; not shown: N-terminal GST (glutathione S-transferase) tag of the pGEX-4T1 vector
T2 sequence (Q9ULZ3 1-106): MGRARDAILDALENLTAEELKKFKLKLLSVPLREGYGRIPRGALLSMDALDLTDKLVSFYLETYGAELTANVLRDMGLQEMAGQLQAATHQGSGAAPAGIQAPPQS

binding result [1]: binds
Binder: {FITC′}-[βAla]EELKKFK[Nle]KLGTV-NH2 (also called peptide 55) [fPOP1-H2]

fold change of KD against fSAH-POP1-5 (lower) [1]: 2 fold
B1: fSAH-POP1-6 (peptide)
peptide: XQXLKKXKXKLWTA
modifications: N-terminal fluorescein (FITC) on β-alanine; S5 = (S)-2-(4-pentenyl)alanine residues covalently linked (hydrocarbon staple); made on Rink amide resin
notes: also called peptide 57

binding result [2]: binds
Binder: {FITC′}-[βAla]Q[S5]LRR[S5]QWKLWTS-NH2 (staple 3-7, also called peptide 67) [fSAH-POP1-16]

binding result [1]: binds
B2: fSAH-POP1-4 (peptide)
peptide: AEXLKKXKXKLGTV
modifications: N-terminal fluorescein (FITC) on β-alanine; S5 = (S)-2-(4-pentenyl)alanine residues covalently linked (hydrocarbon staple); made on Rink amide resin
notes: FITC-labelled stapled peptide; also called peptide 54

fold change of KD against fSAH-POP1-4 (higher) [1]: 1.5 fold
B3: fSAH-POP1-5 (peptide)
peptide: AQXLKKXKXKLGTA
modifications: N-terminal fluorescein (FITC) on β-alanine; S5 = (S)-2-(4-pentenyl)alanine residues covalently linked (hydrocarbon staple); made on Rink amide resin
notes: also called peptide 56

fold increase of binding affinity against fSAH-POP1-10 [1]: 10 fold
Binder: {FITC′}-[βAla]Q[S5]LRK[S5]QWKLWTA-NH2 (staple 3-7, also called peptide 63) [fSAH-POP1-12]

Reference: patent US20250115641A1 (H LEE MOFFITT CANCER CENTER AND RESEARCH INSTITUTE, published 2025)
